Source: US5008241A, “Novel insulin peptides” (Novo Nordisk A/S, priority 1985, dated 1991)

How the values were obtained:
[1] = Deamidation products formed on storage at 25° C., pH 3, DISC PAGE analysis; assay type: physicochemical; settings: 0.24 mM analog, 3 Zn++ per hexamer
Method: Deamidation products formed per month after storage 25 at 25° C. and a pH value of 3.
The compositions tested were as follows: 0.24 mM insulin analog, 0.3% (w/v) m-cresol, 1.6% (w/v) glycerol, 3 Zn^++ per insulin hexamer and 0.01 M sodium acetate to obtain a pH value of 3. The determinations were made using DISC PAGE analysis.

[2] = Di- and polymerization products formed on storage at 25 C, HPSEC; assay type: physicochemical; settings: 3 Zn++ per hexamer
Method: The compositions tested were as follows: 0.24 mM insulin analog, 0.3% /w/v) m-cresol, 1.6% (w/v) glycerol, 0.01 M sodium acetate and 3 Zn^++ per insulin hexamer. The determination was made using HPSEC (high performance size exclusion chromatography).
A reference insulin having Asn^A21 is included for comparison.

[3] = from Diabetes Care, Vol. 6/Supplement 1 (1983), 4; cited from earlier work

Substance	Deamidation products formed per month [1]	Di- and polymerization products formed per month ([2]; pH of formulation 3.0, 0.24 mM analog)	Di- and polymerization products formed per month ([2]; pH of formulation 4.0, 0.24 mM analog)	Di- and polymerization products formed per month ([2]; pH of formulation 5.0, 0.24 mM analog)	established potency [3]
Arg^B27 Thr^B30 --NH2 human insulin	approx. 10%	0.15%	0.62%	1.4%	
monocomponent procine insulin: monocomponent porcine insulin					28.5 U/mg dry substance
